Assay results: publication doi:10.1101/620195, “Modulation of DNA polymerase IV activity by UmuD and RecA* observed by single-molecule time-lapse microscopy” (bioRxiv, 2019)

Target: T1, E. coli RecA(E38K) protein (E. coli, UniProt P0A7G6 1-353, E38K)
T1 construct: RecA recombinase, E. coli, with the E38K mutation (allele recA730); In the assay it stood as a filament assembled with ATPγS on a biotinylated 60-mer dsDNA held on a streptavidin chip; also called recA730; RecA(E38K)-ATPγS filaments
T1 sequence (looked up): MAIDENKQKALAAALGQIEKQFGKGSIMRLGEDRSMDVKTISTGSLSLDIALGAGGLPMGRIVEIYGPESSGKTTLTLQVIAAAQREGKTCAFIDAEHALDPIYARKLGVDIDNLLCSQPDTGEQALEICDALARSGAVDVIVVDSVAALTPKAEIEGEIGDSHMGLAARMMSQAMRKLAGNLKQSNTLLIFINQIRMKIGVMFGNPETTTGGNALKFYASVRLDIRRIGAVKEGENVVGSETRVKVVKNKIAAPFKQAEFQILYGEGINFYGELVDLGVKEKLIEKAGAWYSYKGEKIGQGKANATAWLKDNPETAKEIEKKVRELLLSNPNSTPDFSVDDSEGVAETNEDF
Test: SPR; BIAcore T200, SA chip; RecA(E38K) filaments assembled on immobilised biotinylated 60-mer dsDNA; 0.65 uM pol IV injected for 220 s at 5 uL/min; 20 °C; 20 mM Tris-HCl pH 8.0, 10 mM KCl, 10 mM MgCl2, 0.005% surfactant P20, 0.5 mM dithiothreitol, 0.5 mM ATPγS
Conditions: both partners purified

B1: DNA polymerase IV (pol IV) (enzyme, E. coli, UniProt Q47155 1-351, looked up)
chain: MRKIIHVDMDCFFAAVEMRDNPALRDIPIAIGGSRERRGVISTANYPARKFGVRSAMPTGMALKLCPHLTLLPGRFDAYKEASNHIREIFSRYTSRIEPLSLDEAYLDVTDSVHCHGSATLIAQEIRQTIFNELQLTASAGVAPVKFLAKIASDMNKPNGQFVITPAEVPAFLQTLPLAKIPGVGKVSAAKLEAMGLRTCGDVQKCDLVMLLKRFGKFGRILWERSQGIDERDVNSERLRKSVGVERTMAEDIHHWSECEAIIERLYPELERRLAKVKPDLLIARQGVKLKFDDFQQTTQEHVWPRLNKADLIATARKTWDERRGGRGVRLVGLHVTLLDPQMERQLVLGL
notes: DNA polymerase IV, product of dinB, E. coli; Native pol IV, no tag, > 99% pure; also called DinB
B1: binds.
